This data set deals with the molecule itself. In words: FRET by flow cytometry, mixtures of Annexin A5-FITC and Annexin A5-Alexa568 on PtdSer-coated paramagnetic beads. As to the method:
Formation of two-dimensional lattices on the phospholipids surfaces was assessed FRET (fluorescence resonance energy transfer) analysis. Paramagnetic beads (1-4 μm in diameter) that were coated with a phospholipids bilayer containing PtdSer were incubated with mixtures of Annexin A5-FITC and Annexin A5-Alexa568 or mixtures of M23-FITC and M23-Alexa568. Fluorescence intensity of the beads was then measured by flow cytometry (Coulter Epics XL-MLC™) using an excitation of 488 nm and emission ranges of 515-530 nm (F11) and >600 nm (F13).

These results are taken from patent US20060009381A1 (I P RANDYWYCK B V, published 2006).

B1: Annexin A5 (other)
chain: AQVLRGTVTDFPGFDERADAETLRKAMKGLGTDEESILTLLTSRSNAQRQEISAAFKTLFGRDLLDDLKSELTGKFEKLIVALMKPSRLYDAYELKHALKGAGTNEKVLTEIIASRTPEELRAIKQVYEEEYGSSLEDDVVGDTSGYYQRMLVVLLQANRDPDAGIDEAQVEQDAQALFQAGELKWGTDEEKFITIFGTRSVSHLRKVFDKYMTISGFQIEETIDRETSGNLEQLLLAVVKSIRSIPAYLAETLYYAMKGAGTDDHTLIRVMVSRSEIDLFNIRKEFRKNFATSLYSMIKGDTSGDYKKALLLLCGEDD
modifications: FITC or Alexa568-succinimidylester coupled to amines (positions not stated)
notes: The FRET assay used mixtures of Annexin A5-FITC and Annexin A5-Alexa568 on paramagnetic beads coated with a PtdSer bilayer; also called Annexin A5-FITC; Annexin A5-Alexa568
Consider B1, for which the binding result was “binds”.
